Legend:
[1] = molecular target: human TROP2 (hTROP2) on cells (human); assay: flow cytometry, NCI-H292 cells (express HER2 and TROP2)
[2] = molecular target: human TROP2 (hTROP2) on cells (human); assay: flow cytometry, NCI-N87 cells (express HER2 and TROP2)
[3] = molecular target: human TROP2 (hTROP2) on cells (human); assay: cell-based or functional assay

Sequence of human TROP2 (hTROP2) on cells (human) (P09758 whole entry): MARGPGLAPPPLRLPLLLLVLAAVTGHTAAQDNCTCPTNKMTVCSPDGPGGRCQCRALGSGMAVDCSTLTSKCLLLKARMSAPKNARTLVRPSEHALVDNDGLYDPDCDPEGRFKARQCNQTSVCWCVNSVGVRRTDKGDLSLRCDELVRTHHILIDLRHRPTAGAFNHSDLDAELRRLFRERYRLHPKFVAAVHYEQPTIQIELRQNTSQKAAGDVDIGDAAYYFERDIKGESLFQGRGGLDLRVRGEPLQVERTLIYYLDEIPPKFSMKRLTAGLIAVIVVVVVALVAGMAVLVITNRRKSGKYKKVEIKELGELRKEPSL

Binder | flow cytometry test result (%) [1] | flow cytometry test result (%) [2] | endocytosis, direct detection: MFI [3] | endocytosis, direct detection: Percentage of Positive Population [3] | endocytosis, indirect detection: MFI [3] | endocytosis, indirect detection: Percentage of Positive Population [3] | endocytosis: MFI [3] | endocytosis: Percentage of Positive (%) [3]
Sacituzumab govitecan antibody analog (antibody, INN chains, looked up, V domains shown) VH: QVQLQQSGSELKKPGASVKVSCKASGYTFTNYGMNWVKQAPGQGLKWMGWINTYTGEPTYTDDFKGRFAFSLDTSVSTAYLQISSLKADDTAVYFCARGGFGSSYWYFDVWGQGSLVTVSS VL: DIQLTQSPSSLSASVGDRVSITCKASQDVSIAVAWYQQKPGKAPKLLIYSASYRYTGVPDRFSGSGSGTDFTLTISSLQPEDFAVYYCQQHYITPLTFGAGTKVEIKR | 97.4% | 98.7% | 16600 | 70.1% | 16100 | 72.2% | 23000 | 51.2%
DS-1062 antibody analog (antibody, INN chains, looked up, V domains shown) VH: QVQLVQSGAEVKKPGASVKVSCKASGYTFTTAGMQWVRQAPGQGLEWMGWINTHSGVPKYAEDFKGRVTISADTSTSTAYLQLSSLKSEDTAVYYCARSGFGSSYWYFDVWGQGTLVTVSS VL: DIQMTQSPSSLSASVGDRVTITCKASQDVSTAVAWYQQKPGKAPKLLIYSASYRYTGVPSRFSGSGSGTDFTLTISSLQPEDFAVYYCQQHYITPLTFGQGTKLEIK | – | – | – | – | – | – | 21800 | 43.9%
